According to US20240376185A1 (SMIVET B V, published 2024):
Where two headings read alike, the source gives them in different places.

Assays:
[1] = target: T1, tetanus neurotoxin (TeNT), authentic tetanus holotoxin (Clostridium tetani, UniProt P04958 2-1315); experiment: ELISA: directly coated TeNT, goat anti-llama Ig PO
[2] = target: T1, tetanus neurotoxin (TeNT), authentic …; experiment: bridging ELISA: coated TeNT, SDA, biotinylated TeNT, StrepPO (bivalent binding)
[3] = target: T1, tetanus neurotoxin (TeNT), authentic …; experiment: BLI (Octet Red96): biotinylated SDA on SA sensor, TeNT as analyte
[4] = target: T1, tetanus neurotoxin (TeNT), authentic …; experiment: GT1b-TeNT inhibition ELISA
[5] = target: T1, tetanus neurotoxin (TeNT), authentic …; experiment: GT1b-TeNT inhibition ELISA; remark: listed apart in the source
[6] = target: T1, tetanus neurotoxin (TeNT), authentic …; experiment: ELISA: directly coated TeNT, anti-his6 PO
[7] = target: T1, tetanus neurotoxin (TeNT), authentic …; experiment: bridging ELISA: coated TeNT, SDA, biotinylated TeNT, StrepPO (bivalent binding); remark: listed apart in the source
[8] = target: T1, tetanus neurotoxin (TeNT), authentic …; experiment: ELISA: directly coated TeNT, goat anti-llama Ig PO; remark: listed apart in the source
[9] = target: T1, tetanus neurotoxin (TeNT), authentic …; experiment: ELISA: directly coated TeNT, anti-his6 PO; remark: listed apart in the source
[10] = target: T2, Tetanus neurotoxin (TeNT), authentic tetanus holotoxin (Clostridium tetani, UniProt P04958 2-1315); experiment: BLI (Octet Red96), biotinylated SDA on SA sensor, TeNT as analyte
[11] = target: dog IgG (chrompure dog IgG) (dog)
[12] = target: dog IgG (chrompure dog IgG) (dog); remark: listed apart in the source
[13] = target: T1, tetanus neurotoxin (TeNT), authentic …; experiment: BLI (Octet Red96); avidity (bivalent for TeNT); format for this SDA not told
[14] = target: T3, human serum albumin (human, UniProt P02768 25-609); experiment: ELISA, coated albumin, E. coli supernatant
T3 construct: mature; also called human Alb

[15] = target: T3, human serum albumin; experiment: ELISA, E. coli supernatant
[16] = target: T2, Tetanus neurotoxin (TeNT), authentic …
[17] = target: T4, Horse albumin (horse, UniProt P35747 25-607); experiment: BLI (Octet Red96), SDA on Ni-NTA sensor, albumin as analyte
T4 construct: also called Equine albumin; Equine Alb

[18] = target: T5, Cat albumin (cat, UniProt P49064 25-608); experiment: as above
T5 construct: also called Feline albumin; Feline Alb

[19] = target: T6, Dog albumin (dog, UniProt P49822 25-608); experiment: as above
T6 construct: also called Canine albumin; Canine Alb

B1: SVT06L (VHH)
VHH: QVQLQESGGGSVQAGGSLRLSCTASELSYDDYTIAWFRRAAGEGRVEDGEGVASITKSYDRAYDNKINYGHSVKGRFTISRDNAKNTVYLQMTDLLPSDTAVYYCALDITPPGGVGASLTEGFLFDYWGQGTQVTVSS
For B1, the “Effective SDA Concentration at A450 0.15” value [1] was 14 ng/mL, the maximal absorbance value [2] was 0.35 A450 and the Kd [3] was 535 pM. The koff [3] was 6.27e-05 s⁻¹, the kon [3] was 117000 M⁻¹ s⁻¹ and the “minimal absorbance value (GT1b-TeNT inhibition)” value [4] was 0.27 A450. The “Effective SDA Concentration at A450 0.56” value [5] was 33 ng/mL, the “Effective SDA Concentration at A450 0.15” value [6] was 4.9 ng/mL and the “Effective SDA Concentration at A450 0.3” value [7] was 64 ng/mL. For the same binder, the maximal absorbance value [8] was 0.32 A450 and the maximal absorbance value [9] was 1.44 A450.

B2: SVT06L (VHH)
VHH: QVQLQESGGGSVQAGGSLRLSCTASELSYDDYTIAWFRRAAGEGRVEDGEGVASITKSYDRAYDNKINYGHSVKGRFTISRDNAKNTVYLQMTDLLPSDTAVYYCALDITPPGGVGASLTEGFLFDYWGQGTQVTVSS
Work on B2 yielded a Kd [10] of 224 pM, a koff [10] of 0.000113 s⁻¹ and a kon [10] of 503000 M⁻¹ s⁻¹.

B3: SVT06-SVT16-L123Q-GS2-SVG13M4-H6 (bispecific antibody)
chain: QVQLQESGGGSVQAGGSLRLSCTASELSYDDYTIAWFRRAAGEGRVEDGEGVASITKSYDRAYDNKINYGHSVKGRFTISRDNAKNTVYLQMTDLLPSDTAVYYCALDITPPGGVGASLTEGFLFDYWGQGTQVTVSSQVQLQESGGGSVQAGDSLRLSCAASGRTISNYAMGWFRQAPGKQREFVAAISRSDNTYYTDSVKGRFTISRDNAKNTLYLQMNSLKPEETAVYYCAADPNLMYESKWKYRALEAWGQGTQVTVSSGGGGSGGGSEVQLVESGGGLVQPGGSLRLSCEASGFTFDDYGMSWVRQAPGKGLEWVSSLTPNGGSTYYADSVKGRFTISRDNAKNTLYLQMNSLKPEDTALYYCAKNSYYGAMDYWGQGTQVTVSSHHHHHH
notes: also called pRL501
With B3 the maximal absorbance value [11] was 0.78 A450 and the “Effective SDA Concentration at A450 0.2” value [12] was 134 ng/mL.

B4: SVT16-L123Q-GS2-SVG13M4-H6 (bispecific antibody)
chain: QVQLQESGGGSVQAGDSLRLSCAASGRTISNYAMGWFRQAPGKQREFVAAISRSDNTYYTDSVKGRFTISRDNAKNTLYLQMNSLKPEETAVYYCAADPNLMYESKWKYRALEAWGQGTQVTVSSGGGGSGGGSEVQLVESGGGLVQPGGSLRLSCEASGFTFDDYGMSWVRQAPGKGLEWVSSLTPNGGSTYYADSVKGRFTISRDNAKNTLYLQMNSLKPEDTALYYCAKNSYYGAMDYWGQGTQVTVSSHHHHHH
For B4, the maximal absorbance value [11] was 0.69 A450 and the “Effective SDA Concentration at A450 0.2” value [12] was 127 ng/mL.

B5: SVT15L (VHH)
VHH: QVQLQESGGGLVQTGGSLRLSCRASGRAFANYHFGWFRQAPGKDREFVASISWKGGSTYYANFALGRFTSSVDRAESSVYLQMSGLTPEDTATYYCAAHDGGDWNYHTGMDYWGKGILVTVSS
Work on B5 yielded a Kd [3] of 413 pM, a koff [3] of 3.87e-05 s⁻¹ and a kon [3] of 93600 M⁻¹ s⁻¹.

B6: SVT15L (VHH)
VHH: QVQLQESGGGLVQTGGSLRLSCRASGRAFANYHFGWFRQAPGKDREFVASISWKGGSTYYANFALGRFTSSVDRAESSVYLQMSGLTPEDTATYYCAAHDGGDWNYHTGMDYWGKGILVTVSS
B6 was tested, and the Kd [10] was 772 pM, the koff [10] was 8.57e-05 s⁻¹ and the kon [10] was 111000 M⁻¹ s⁻¹.

B7: SVG13L (VHH)
VHH: QVQLQESGGGLVQPGGSLRLSCEASGFTFDDYGMSWVRQAPGKGLEWVSSLTPNGGSTYYADSVKGRFTISRDNAKNTLYLQMNSLKPEDTALYYCAKNSYYGAMDYWGKGTLVTVSS
For B7, the “Effective SDA Concentration at A450 0.15” value [1] was > 1000 ng/mL, the maximal absorbance value [11] was 0.16 A450 and the maximal absorbance value [2] was 0.17 A450. The “minimal absorbance value (GT1b-TeNT inhibition)” value [4] was 0.72 A450, the “Effective SDA Concentration at A450 0.56” value [5] was > 1000 ng/mL and the “Effective SDA Concentration at A450 0.15” value [6] was > 1000 ng/mL. The binding result [6] was “no binding (tested: 1000 ng/ml (A450 0.15 not reached))”, the “Effective SDA Concentration at A450 0.3” value [7] was > 1000 ng/mL and the maximal absorbance value [8] was 0.09 A450. It also gave a maximal absorbance value [9] of 0.08 A450.

B8: SVT06-GS3-SVT02-GS2-SVG06M4-H6 (bispecific antibody)
chain: QVQLQESGGGSVQAGGSLRLSCTASELSYDDYTIAWFRRAAGEGRVEDGEGVASITKSYDRAYDNKINYGHSVKGRFTISRDNAKNTVYLQMTDLLPSDTAVYYCALDITPPGGVGASLTEGFLFDYWGQGTQVTVSSGGGGSGGGGSGGGGSQVQLQQSGGGSVQAGGSLRLSCVGPQRTFSTYGMGWFRQAPGKEREFVAGINYKGDTTYYADSVKGRFTISRDNAKNTLYLQMDSLKPEDRAVYQCARKGGLGGDYRDAGQYRYWGQGTQVTVSSGGGGSGGGSEVQLVESGGALVQPGGSLRLSCAASGFPFSAYDMTWVRQAPGQGLEWVSTIHKSGGITTYADSVKGRFTISRDNAKNTLYLQMNNLESEDTAVYYCAKALRAHNSDYVGRNALGSWGQGTQVTVSSHHHHHH
B8 was tested, and the Kd [13] was 130 pM, the koff [13] was 4.27e-05 s⁻¹ and the kon [13] was 329000 M⁻¹ s⁻¹.

B9: SVA04 (VHH, not shown: large carriers)
VHH: QVQLQQSGGGLVQAGGSLRLACAASGRTLSSYVMGWFRQAPGKEREFVAAISWSGGSTYYADSVKGRFTISRDNAKNTVYLQMNSLKPEDTAVYYCAATLRGSNRYYSGRVYDYWGQGTQVTVSS
In the case of B9, the “absorbance at 450 nm” value [14] is reported as 0.085 A450 and the binding result [15] is reported as “no binding”.

B10: SVT15-3FW4M-GS2-SVG13M4-H6 (bispecific antibody)
chain: QVQLQESGGGLVQTGGSLRLSCRASGRAFANYHFGWFRQAPGKDREFVASISWKGGSTYYANFALGRFTSSVDRAESSVYLQMSGLTPEDTATYYCAAHDGGDWNYHTGMDYWGQGTQVTVSSGGGGSGGGSEVQLVESGGGLVQPGGSLRLSCEASGFTFDDYGMSWVRQAPGKGLEWVSSLTPNGGSTYYADSVKGRFTISRDNAKNTLYLQMNSLKPEDTALYYCAKNSYYGAMDYWGQGTQVTVSSHHHHHH
B10 showed a Kd [16] of 20.9 pM, a koff [16] of 8.15e-06 s⁻¹ and a kon [16] of 390000 M⁻¹ s⁻¹.

B11: SVG06L (VHH)
VHH: QVQLQESGGALVQPGGSLRLSCAASGFPFSAYDMTWVRQAPGQGLEWVSTIHKSGGITTYADSVKGRFTISRDNAKNTLYLQMNNLESEDTAVYYCAKALRAHNSDYVGRNALGSWGEGTLVTVSS
With B11 the “Effective SDA Concentration at A450 0.15” value [1] was > 1000 ng/mL, the maximal absorbance value [11] was 0.56 A450 and the maximal absorbance value [2] was 0.14 A450. The “Effective SDA Concentration at A450 0.2” value [12] was 164 ng/mL, the “minimal absorbance value (GT1b-TeNT inhibition)” value [4] was 0.8 A450 and the “Effective SDA Concentration at A450 0.56” value [5] was > 1000 ng/mL. For the same binder, the “Effective SDA Concentration at A450 0.15” value [6] was > 1000 ng/mL, the binding result [6] was “no binding (tested: 1000 ng/ml (A450 0.15 not reached))” and the “Effective SDA Concentration at A450 0.3” value [7] was > 1000 ng/mL. The maximal absorbance value [8] was 0.07 A450 and the maximal absorbance value [9] was 0.05 A450.

B12: SVT03L (VHH)
VHH: QVQLQQSGGGSVQTGDSLTLSCTASGGSLNSYFVGWFRQSGGKEREFVSVIARTGRSTSYADSVKGRFTISRDNAANTVFLTMNNLRPDDTAIYYCAAVGRPGVLHLTQSYDYWGQGTQVTVSS
Work on B12 yielded a Kd [16] of 1.4 pM, a koff [16] of 6.64e-06 s⁻¹ and a kon [16] of 4.62e+06 M⁻¹ s⁻¹.

B13: SVA06L (VHH)
VHH: QVQLQESGGRLVQAEDSLRLSCAASGRTFVSYDMGWFRQAPGKEREFVAAINWRGYTTDYVDSVKGRFFISRDIAKSTVYLQMNNLKPEDTAVYYCAARQMSGSSRYSPPGRVGYDFWGQGTQVTVSS
B13 gave a Kd [17] of 13500 pM, a koff [17] of 0.00977 s⁻¹ and a kon [17] of 726000 M⁻¹ s⁻¹. The Kd [18] was 1200 pM, the koff [18] was 0.000878 s⁻¹ and the kon [18] was 729000 M⁻¹ s⁻¹. For the same binder, the Kd [19] was 3160 pM, the koff [19] was 0.00224 s⁻¹ and the kon [19] was 711000 M⁻¹ s⁻¹.
